Measured values reported in paper PMC3988258.

Biological target: GFP-NAIP2 (mouse) (UniProt Q9QUK4)
Assay: co-IP

Chain of UniProt Q9QUK4 (Q9QUK4 whole entry): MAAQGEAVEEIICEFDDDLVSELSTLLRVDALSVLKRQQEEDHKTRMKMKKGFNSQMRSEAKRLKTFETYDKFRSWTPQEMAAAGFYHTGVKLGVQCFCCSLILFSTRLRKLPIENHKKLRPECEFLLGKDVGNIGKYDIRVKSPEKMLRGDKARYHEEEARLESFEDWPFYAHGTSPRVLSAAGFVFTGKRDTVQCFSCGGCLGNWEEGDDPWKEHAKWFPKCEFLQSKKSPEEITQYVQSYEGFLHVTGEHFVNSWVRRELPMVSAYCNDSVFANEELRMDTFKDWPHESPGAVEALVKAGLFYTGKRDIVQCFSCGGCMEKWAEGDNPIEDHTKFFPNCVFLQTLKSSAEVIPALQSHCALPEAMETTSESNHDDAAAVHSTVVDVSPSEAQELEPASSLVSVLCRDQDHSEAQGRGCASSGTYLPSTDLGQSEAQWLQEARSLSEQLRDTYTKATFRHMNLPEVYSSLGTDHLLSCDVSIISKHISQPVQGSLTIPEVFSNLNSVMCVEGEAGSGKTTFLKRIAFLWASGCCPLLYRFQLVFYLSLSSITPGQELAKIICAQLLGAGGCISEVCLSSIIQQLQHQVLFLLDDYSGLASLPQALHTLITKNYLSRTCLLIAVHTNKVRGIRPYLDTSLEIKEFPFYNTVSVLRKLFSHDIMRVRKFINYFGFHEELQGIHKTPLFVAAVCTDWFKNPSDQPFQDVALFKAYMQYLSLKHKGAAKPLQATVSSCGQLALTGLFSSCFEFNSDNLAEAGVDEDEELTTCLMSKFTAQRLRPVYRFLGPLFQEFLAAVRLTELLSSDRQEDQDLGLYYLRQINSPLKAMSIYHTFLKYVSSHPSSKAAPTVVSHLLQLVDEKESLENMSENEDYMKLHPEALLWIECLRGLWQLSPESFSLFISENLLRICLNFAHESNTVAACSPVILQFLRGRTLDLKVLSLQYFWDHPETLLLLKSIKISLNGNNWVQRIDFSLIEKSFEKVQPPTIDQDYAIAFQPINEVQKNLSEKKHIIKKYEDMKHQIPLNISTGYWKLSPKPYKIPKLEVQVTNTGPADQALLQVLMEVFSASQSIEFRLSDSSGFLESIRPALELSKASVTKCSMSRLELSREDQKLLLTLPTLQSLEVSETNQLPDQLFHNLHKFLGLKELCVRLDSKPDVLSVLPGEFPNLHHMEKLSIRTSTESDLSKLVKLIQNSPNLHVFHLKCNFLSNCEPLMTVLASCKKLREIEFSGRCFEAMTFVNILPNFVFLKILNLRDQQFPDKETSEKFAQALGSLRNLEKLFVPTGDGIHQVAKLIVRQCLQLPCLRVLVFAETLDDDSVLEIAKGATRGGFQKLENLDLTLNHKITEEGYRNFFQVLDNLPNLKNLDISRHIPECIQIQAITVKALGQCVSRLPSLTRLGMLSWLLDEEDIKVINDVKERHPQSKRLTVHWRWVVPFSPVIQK

Question: Which stoichiometry N (ligand per NAIP) does the source give for “GFP-PrgJ (from UniProt P41785 1-101) (ligand)” here?
Answer: 1
